Test results from IntAct's records for PubMed 22902366.

B1: Macrophage colony-stimulating factor 1 (Homo sapiens), P09603 (parent)
chain: MTAPGAAGRCPPTTWLGSLLLLVCLLASRSITEEVSEYCSHMIGSGHLQSLQRLIDSQMETSCQITFEFVDQEQLKDPVCYLKKAFLLVQDIMEDTMRFRDNTPNAIAIVQLQELSLRLKSCFTKDYEEHDKACVRTFYETPLQLLEKVKNVFNETKNLLDKDWNIFSKNCNNSFAECSSQDVVTKPDCNCLYPKAIPSSDPASVSPHQPLAPSMAPVAGLTWEDSEGTEGSSLLPGEQPLHTVDPGSAKQRPPRSTCQSFEPPETPVVKDSTIGGSPQPRPSVGAFNPGMEDILDSAMGTNWVPEEASGEASEIPVPQGTELSPSRPGGGSMQTEPARPSNFLSASSPLPASAKGQQPADVTGTALPRVGPVRPTGQDWNHTPQKTDHPSALLRDPPEPGSPRISSLRPQGLSNPSTLSAQPQLSRSHSSGSVLPLGELEGRRSTRDRRSPAEPEGGPASEGAARPLPRFNSVPLTDTGHERQSEGSFSPQLQESVFHLLVPSVILVLLAVGGLLFYRWRRRSHQEPQRADSPLEQPEGSPLTQDDRQVELPV
B2: Secreted protein BARF1 (Epstein-Barr virus (strain B95-8) (HHV-4)), P03228 (parent)
chain: MARFIAQLLLLASCVAAGQAVTAFLGERVTLTSYWRRVSLGPEIEVSWFKLGPGEEQVLIGRMHHDVIFIEWPFRGFFDIHRSANTFFLVVTAANISHDGNYLCRMKLGETEVTKQEHLSVVKPLTLSVHSERSQFPDFSVLTVTCTVNAFPHPHVQWLMPEGVEPAPTAANGGVMKEKDGSLSVAVDLSLPKPWHLPVTCVGKNDKEEAHGVYVSGYLSQ
partner: B1 chain

Variants of: B1
Settings: with csf1r_human CSF1R
H41A;H47A;Q90A;D91A was tested, and the “effect of a mutation on the interaction” value was “decreasing interaction strength”.

Variants of: B2
Settings: with csf1_human CSF1, P09603
Y34A;R36A;R37A;V38A;S39A was tested, and the “effect of a mutation on the interaction” value was “decreasing interaction strength”. In the case of Y34A;R36A;R37A;V38A;S39A;R82A;S83A;N85A;T86A, the “effect of a mutation on the interaction” value is reported as “decreasing interaction strength”.
